{
  "source": "patent US20250353931A1",
  "about": "(CHIMERIS UK, published 2025)",
  "molecular_target": "CD3 on T cells (Jurkat T cells; primary human T cells) (human, UniProt P07766 23-207; P04234 22-171; P09693 23-182)",
  "sequence (P07766 23-207 limits assumed, chain 1 of 3)": "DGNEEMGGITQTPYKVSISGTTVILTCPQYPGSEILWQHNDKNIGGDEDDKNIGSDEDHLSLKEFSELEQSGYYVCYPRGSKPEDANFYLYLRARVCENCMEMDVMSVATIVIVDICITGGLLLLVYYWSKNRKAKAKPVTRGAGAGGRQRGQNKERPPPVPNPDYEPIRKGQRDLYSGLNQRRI",
  "sequence (P04234 22-171 limits assumed, chain 2 of 3)": "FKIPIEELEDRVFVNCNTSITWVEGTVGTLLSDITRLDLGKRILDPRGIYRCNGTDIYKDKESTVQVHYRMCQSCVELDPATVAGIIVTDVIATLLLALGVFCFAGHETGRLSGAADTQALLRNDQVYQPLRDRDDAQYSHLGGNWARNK",
  "sequence (P09693 23-182 limits assumed, chain 3 of 3)": "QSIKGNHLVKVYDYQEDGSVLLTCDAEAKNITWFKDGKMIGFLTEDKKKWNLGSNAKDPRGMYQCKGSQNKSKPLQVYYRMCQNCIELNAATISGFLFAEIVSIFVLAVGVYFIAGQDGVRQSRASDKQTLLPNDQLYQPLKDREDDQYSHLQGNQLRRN",
  "experiment": "flow cytometry on Jurkat T cells, APC-conjugated anti-His tag secondary antibody",
  "method": "Each multi-specific reagent was then screened for binding to Jurkat T cells. Jurkat T cells were plated into individual wells of a 96-well plate (˜100,000 cells per well in 200 ul ImmunoCult™-XF T Cell Expansion Medium (StemCell Technologies)). […] As a control, CHO cell culture medium alone was added. Following incubation for two hours, cells were washed and stained in 50 μl FACS buffer (PBS (Gibco)/2% FBS (LabTech)) containing a 1/100 dilution of an APC-conjugated anti-His tag secondary antibody (BioLegend). Cells were washed again and resuspended in 100 μl FACS buffer plus 0.1 μg/ml DAPI live/dead staining dye (Roche). Cell samples were run on a MACSQuant® Analyzer 10 Flow Cytometer and analyzed using the FlowJo (v10) software.",
  "data": [
    {"binder": "CM04P (anti-PEG _ anti-EpCAM) (bispecific antibody, Intended as a negative control; also called αPEG/αEPCAM) QIQLVQSGPELKKPGETVKISCKASGYTFKNYGMNWVKQAPGKGLKWMGWINTYTGQPIYANDFKGRFAFSLETSASTAYLQINNLKNEDTATYFCARDWGPYWGQGTLVIVSASPNSASHSGSAPQTSSAPGSQNIMMTQSPSSLAVSAGEKVTVNCKSSQSVLYSSNQMNYLAWYQQKPGQSPKLLIYWASTRESGVPDRFTGSGSGTDFTLTISSVQTEDLAVYYCLQYLSSWTFGGGTKLEIKGGSSRSSSSGGGGSGGGGQVKLQQSGPELKKPGETVKISCKASGYTFTNYGMNWVKQAPGKGLKWMGWINTYTGESTYADDFKGRFAFSLETSASAAYLQINNLKNEDTATYFCARFAIKGDYWGQGTTVTVSSSPNSASHSGSAPQTSSAPGSQDIVLTQSPFSNPVTLGTSASISCRSTKSLLHSNGITYLYWYLQKPGQSPQLLIYQMSNLASGVPDRFSSSGSGTDFTLRISRVEAEDVGVYYCAQNLEIPRTFGGGTKLEIKGGGGSHHHHHHHH", "values": [
      {"measurement": "binding result", "value": "no binding (tested: 20 µl of CHO culture supernatant)"}
    ]}
  ]
}
